One assay concerns the target T1, P9SHb.
T1 chain: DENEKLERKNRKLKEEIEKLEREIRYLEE
Briefly: two-hybrid library CCNG1.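 Also: natural log of median RNA to DNA barcode read ratio; higher means stronger binding.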

The target of the next assay is T2, 4H_BCR.
T2 chain: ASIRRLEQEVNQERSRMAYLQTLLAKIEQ
Briefly: two-hybrid library CCmax.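 Also: natural log of median RNA to DNA barcode read ratio; higher means stronger binding.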

The target in the next assay is T3, 4H3587-AA.
T3 chain: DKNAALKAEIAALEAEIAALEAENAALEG
Briefly: two-hybrid library CCmax.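 Also: natural log of median RNA to DNA barcode read ratio; higher means stronger binding.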

The target of another assay is T4, O11-AA.
T4 chain: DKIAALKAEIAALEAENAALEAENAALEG
Kind of assay: two-hybrid library CCmax.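 Also: natural log of median RNA to DNA barcode read ratio; higher means stronger binding.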 Particulars: mean of both orientations.

A further assay concerns the target GCN2_T. Kind of assay: two-hybrid library CCmax.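 Also: natural log of median RNA to DNA barcode read ratio; higher means stronger binding.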
For another assay, the target named is T5, 4H43-AA.
T5 chain: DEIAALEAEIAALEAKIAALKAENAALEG
Kind of assay: two-hybrid library CCmax.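 Also: natural log of median RNA to DNA barcode read ratio; higher means stronger binding.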 As to conditions: mean of both orientations.

The target of another assay is T6, 4H451-AA.
T6 chain: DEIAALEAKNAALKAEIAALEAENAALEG
Kind of assay: two-hybrid library CCmax. Particulars: mean of both orientations.

In a further assay the target is T7, 4H510-AA.
T7 chain: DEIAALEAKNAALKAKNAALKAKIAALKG
Kind of assay: two-hybrid library CCmax. Particulars: mean of both orientations.

A further assay addresses T8, O13-AA.
T8 chain: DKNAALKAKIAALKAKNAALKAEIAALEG
Briefly: two-hybrid library CCmax. Particulars: mean of both orientations.

Another assay deals with T9, 4H3625-AA.
T9 chain: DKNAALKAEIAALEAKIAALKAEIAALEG
Briefly: two-hybrid library CCmax. Particulars: mean of both orientations.

The next assay addresses T10, 4H3590-AA.
T10 chain: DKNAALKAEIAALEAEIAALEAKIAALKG
Kind of assay: two-hybrid library CCmax. Particulars: mean of both orientations.

Another assay has as its target 4H_GCN4. Kind of assay: two-hybrid library CCmax.
Another assay has as its target T11, O14-AA.
T11 chain: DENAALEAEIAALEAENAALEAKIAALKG
Briefly: two-hybrid library CCmax. As to conditions: mean of both orientations.

The next assay concerns the target T12, 4H3905-AA.
T12 chain: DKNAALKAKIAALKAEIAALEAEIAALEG
Kind of assay: two-hybrid library CCmax. Particulars: mean of both orientations.

The target of a further assay is T13, 4H384-AA.
T13 chain: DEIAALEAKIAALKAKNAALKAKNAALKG
Briefly: two-hybrid library CCmax. As to conditions: mean of both orientations.

A further assay deals with T14, 4H_APH.
T14 chain: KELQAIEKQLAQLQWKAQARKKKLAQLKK
Kind of assay: two-hybrid library CCmax.

A further assay addresses T15, 4H4038-AA.
T15 chain: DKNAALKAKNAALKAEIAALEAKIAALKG
Kind of assay: two-hybrid library CCmax. As to conditions: mean of both orientations.

The next assay addresses T16, P9A.
T16 chain: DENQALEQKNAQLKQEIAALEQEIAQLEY
Kind of assay: two-hybrid library CCNG1.

For another assay, the target named is T17, 4H492-bN.
T17 chain: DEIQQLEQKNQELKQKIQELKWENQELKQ
Briefly: two-hybrid library CCNG1.

The target in a further assay is T18, 4H319-bN.
T18 chain: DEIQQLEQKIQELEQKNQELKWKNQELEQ
Kind of assay: two-hybrid library CCNG1.

The next assay addresses T19, 4H2915-bN.
T19 chain: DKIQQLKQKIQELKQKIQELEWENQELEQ
Briefly: two-hybrid library CCNG1.

The target of another assay is T20, 4H3277-bN.
T20 chain: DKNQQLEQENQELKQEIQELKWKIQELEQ
Briefly: two-hybrid library CCNG1.

The next assay addresses T21, 4H2839-bN.
T21 chain: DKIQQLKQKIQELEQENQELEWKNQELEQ
Briefly: two-hybrid library CCNG1.

A further assay deals with T22, 4H40-bN.
T22 chain: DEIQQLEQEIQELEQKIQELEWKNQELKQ
Kind of assay: two-hybrid library CCNG1.

A further assay deals with T23, 4H348-bN.
T23 chain: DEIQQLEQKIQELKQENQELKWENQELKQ
Briefly: two-hybrid library CCNG1.

For the next assay, the target named is T24, 4H477-bN.
T24 chain: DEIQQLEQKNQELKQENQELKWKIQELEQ
Briefly: two-hybrid library CCNG1.

The target of another assay is T25, 4H741-bN.
T25 chain: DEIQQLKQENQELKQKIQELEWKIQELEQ
Kind of assay: two-hybrid library CCNG1.

In the next assay the target is T26, 4H3057-bN.
T26 chain: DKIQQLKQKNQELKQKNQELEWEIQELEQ
Briefly: two-hybrid library CCNG1.

Another assay deals with T27, 4H3057-bH.
T27 chain: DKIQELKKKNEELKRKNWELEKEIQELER
Briefly: two-hybrid library CCNG1.

For a further assay, the target named is T28, 4H319-bH.
T28 chain: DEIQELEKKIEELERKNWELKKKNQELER
Kind of assay: two-hybrid library CCNG1.

The target in the next assay is T29, 4H477-bH.
T29 chain: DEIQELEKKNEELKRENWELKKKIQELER
Briefly: two-hybrid library CCNG1.

The target in a further assay is T30, 4H2915-bH.
T30 chain: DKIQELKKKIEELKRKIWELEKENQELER
Briefly: two-hybrid library CCNG1.

For another assay, the target named is T31, 4H492-bH.
T31 chain: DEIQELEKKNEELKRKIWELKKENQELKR
Kind of assay: two-hybrid library CCNG1.

A further assay concerns the target T32, 4H741-bH.
T32 chain: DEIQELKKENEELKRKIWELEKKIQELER
Briefly: two-hybrid library CCNG1.

For another assay, the target named is T33, 4H3277-bH.
T33 chain: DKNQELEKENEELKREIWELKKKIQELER
Kind of assay: two-hybrid library CCNG1.

Another assay addresses T34, 4H348-bH.
T34 chain: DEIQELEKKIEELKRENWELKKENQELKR
Briefly: two-hybrid library CCNG1.

The target of another assay is T35, 4H40-bH.
T35 chain: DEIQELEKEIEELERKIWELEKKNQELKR
Briefly: two-hybrid library CCNG1.

The target in another assay is T36, 4H369-AA.
T36 chain: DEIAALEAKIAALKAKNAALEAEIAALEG
Briefly: two-hybrid library CCmax. As to conditions: mean of both orientations.

For a further assay, the target named is T37, 4H2935-AA.
T37 chain: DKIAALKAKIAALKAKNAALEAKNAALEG
Kind of assay: two-hybrid library CCmax. As to conditions: mean of both orientations.

For a further assay, the target named is T38, 4H3664-AA.
T38 chain: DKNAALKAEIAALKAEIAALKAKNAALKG
Kind of assay: two-hybrid library CCmax. As to conditions: mean of both orientations.

Another assay has as its target T39, 4H662-AA.
T39 chain: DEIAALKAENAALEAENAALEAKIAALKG
Briefly: two-hybrid library CCmax. As to conditions: mean of both orientations.

The target of another assay is T40, 4H327-AA.
T40 chain: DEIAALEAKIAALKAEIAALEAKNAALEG
Kind of assay: two-hybrid library CCmax.

A further assay addresses T41, 4H481-AA.
T41 chain: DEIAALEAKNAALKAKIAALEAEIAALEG
Briefly: two-hybrid library CCmax. Particulars: mean of both orientations.

Another assay deals with T42, 4H2726-AA.
T42 chain: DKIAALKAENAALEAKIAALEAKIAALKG
Briefly: two-hybrid library CCmax.

In a further assay the target is T43, 4H55-AA.
T43 chain: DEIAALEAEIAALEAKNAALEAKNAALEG
Kind of assay: two-hybrid library CCmax. Particulars: mean of both orientations.

The target in the next assay is T44, 4H3605-AA.
T44 chain: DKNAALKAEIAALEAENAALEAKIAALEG
Briefly: two-hybrid library CCmax. As to conditions: mean of both orientations.

The target in another assay is T45, 4H4033-AA.
T45 chain: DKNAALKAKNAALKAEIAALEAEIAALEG
Briefly: two-hybrid library CCmax. Particulars: mean of both orientations.

For the next assay, the target named is T46, 4H3922-AA.
T46 chain: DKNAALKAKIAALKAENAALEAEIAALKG
Kind of assay: two-hybrid library CCmax. As to conditions: mean of both orientations.

Chain of 4H_GCN4 (chain, as listed by the source): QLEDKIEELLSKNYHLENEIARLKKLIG

Turning to DENEKLERKNRKLKEEIEKLEREIRYLEE [P9SHb], the interaction score with P9SHb is -0.553.

Consider DKNAALKAEIAALEAEIAALEAENAALEG [4H3587-AA], for which the interaction score with 4H_BCR is -2.15; with 4H3587-AA it was -2.04; with O11-AA it was -1.13; with GCN2_T it was -2.29; with 4H43-AA, -0.335; with 4H451-AA, -1.79. In addition, the interaction score with 4H510-AA is -0.509; with O13-AA it was 0.274; in the assay with 4H3625-AA, -0.634; with 4H3590-AA, -0.934; with 4H_GCN4 it was -1.87; with O14-AA, -1.35. Further, the interaction score was -0.0465 with 4H3905-AA, 1.5 with 4H384-AA, -1.77 in the assay with 4H_APH and -1.05 in the assay with 4H4038-AA.

Turning to DENQALEQKNAQLKQEIAALEQEIAQLEY [P9A], the interaction score in the assay with P9A is -1.28.

As for DKIQQLKQKIQELEQENQELEWKNQELEQ [4H2839-bN], the interaction score in the assay with 4H492-bN is -0.542; in the assay with 4H319-bN, 1.51; with 4H2915-bN, 0.377; with 4H3277-bN, -0.558; in the assay with 4H2839-bN it was -0.536; in the assay with 4H40-bN, -0.765. Further, the interaction score in the assay with 4H348-bN was -0.511; with 4H477-bN, -1.55; with 4H741-bN, -1.58; with 4H3057-bN, -0.124.

Regarding DKIQELKKKIEELKRKIWELEKENQELER [4H2915-bH], the interaction score was -0.637 with 4H3057-bH; -1.33 with 4H319-bH; -2.15 with 4H477-bH; 0.772 with 4H2915-bH; -1.59 in the assay with 4H492-bH; -0.324 with 4H741-bH. The interaction score in the assay with 4H3277-bH was -1.15; with 4H348-bH, -0.507; with 4H40-bH it was -1.4.

As to DKIQQLKQKIQELKQKIQELEWENQELEQ [4H2915-bN], the interaction score in the assay with 4H492-bN is -1.44; in the assay with 4H319-bN, -3.47; with 4H2915-bN, 0.918; in the assay with 4H3277-bN, -1.62; in the assay with 4H40-bN, 1.52; with 4H348-bN, -0.904. The results for the interaction score with 4H477-bN, with 4H741-bN and with 4H3057-bN were -2.75, -1.16 and -0.568, respectively.

For the molecule DKIAALKAENAALEAKIAALEAKIAALKG [4H2726-AA], the interaction score is 1.68 with 4H369-AA; -1.45 with 4H2935-AA; -1.05 with 4H3664-AA; -0.732 with 4H662-AA; 0.992 with 4H327-AA; -0.165 in the assay with 4H3625-AA. Also, the interaction score with 4H481-AA was 1.94; in the assay with 4H2726-AA it was 1.36; in the assay with 4H55-AA it was -1.14; with 4H3605-AA, -0.283; with 4H4033-AA it was 2.08; with 4H3922-AA it was -1.41.

The record behind these values is paper PMC10397247.
